Four molecules from paper PMC5336307, “The thermodynamics of Pr55Gag-RNA interaction regulate the assembly of HIV” can be followed below.

Test in all cases: ITC; ITC at 30 C in TBS with 1 mM TCEP (pH not stated); 8 uM (6-10) protein in cell, 40 uM (15-50) nucleic acid in syringe; one-site model
Series [1] concerns the target Pr50GagΔp6-TEV (HIV-1, UniProt P12493 1-448). Particulars: protein: recombinant; tags: His removed by TEV protease; TEV site remnant at C-term.
Series [2] has as its target Pr55Gag-TEV (HIV-1, UniProt P12493 1-500). The settings on record: protein: recombinant; tags: His removed by TEV protease; TEV site remnant at C-term.
Series [3] deals with p7NC (HIV-1, UniProt P12493 378-432). Particulars: protein: recombinant, tags: C-terminal His.
Series [4] concerns the target T1, Pr55Gag (HIV-1, UniProt P12493 1-500). Particulars: protein: recombinant, tags: C-terminal His.
Series [5] has as its target p15NC-SP2-p6 (HIV-1, UniProt P12493 378-500). Particulars: protein: recombinant, tags: C-terminal His.
In series [6] the target is Pr50GagΔp6 (HIV-1, UniProt P12493 1-448). Particulars: protein: recombinant, tags: C-terminal His.
Series [7] has as its target T1, Pr55Gag. The settings on record: protein: recombinant; tags: C-terminal His.

For the molecule CUUAGAAAUAGGGCAGCAUAGAACAAAAAUAGAGGAA (ssRNA) [HIVNL4.3RNA2671-2707], the binding result in series [1] and in series [2] was “binds” throughout.
As usually defined, the Kd is the equilibrium constant for the complex coming apart. In the case of GGACUAGCGGAGGCUAGUCC (structured_RNA) [Psi SL3 RNA (20mer)], the Kd in series [3] (hairpin) stood at 48 ± 23 nM; in series [4] (hairpin) it was 81 ± 25 nM; in series [5] (hairpin), 57 ± 11 nM; in series [6] (hairpin) it was 98 ± 3 nM.
GAUGGGAUGGGAUGGGAUGG (ssRNA) [4x 5'-GAUGG-3' (GU-containing)]: the binding result in series [1], in series [3], in series [4], in series [2], in series [5] and in series [6] was “binds” each time.
On to GAGAAGAGAAGAGAAGAGAA (ssRNA) [4x 5'-GAGAA-3' (A-containing)], for which, in series [7], the binding signal was ~3 fold stronger Kd than GU-containing RNA (average over sets).
